Results from the supplement of paper PMC11908140.

B1: library; numbered along this chain (parent)
chain: MRKPRAAVGSGHRKQAASQEGRQKHAKNNSQAKPSACDGLARQPEEVVLQASVSSYHLFRDVAEVTAFRGSLLSWYDQEKRDLPWRRRAEDEMDLDRRAYAVWVSEVMLQQTQVATVINYYTGWMQKWPTLQDLASASLEEVNQLWAGLGYYSRGRRLQEGARKVVEELGGHMPRTAETLQQLLPGVGRYTAGAIASIAFGQATGVVDGNVARVLCRVRAIGADPSSTLVSQQLWGLAQQLVDPARPGDFNQAAMELGATVCTPQRPLCSQCPVESLCRARQRVEQEQLLASGSLSGSPDVEECAPNTGQCHLCLPPSEPWDQTLGVVNFPRKASRKPPREESSATCVLEQPGALGAQILLVQRPNSGLLAGLWEFPSVTWEPSEQLQRKALLQELQRWAGPLPATHLRHLGEVVHTFSHIKLTYQVYGLALEGQTPVTTVPPGARWLTQEEFHTAAVSTAMKKVFRVYQGQQPGTCMGSKRSQVSSPCSRKKPRMGQQVLDNFFRSHISTDAHSLNSAAQ

Variants of: B1
Assay: 8OG:A repair function score (normalized; synonymous = 0, nonsense = -1) (normalized log-likelihood score); higher = more repair activity (WT-like)
Conditions: with 8OG:A DNA repair reporter (GFP) in HEK-293 MUTYH KO cells
Summary of the method: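 MUTYH knockout HEK-293 cells carrying lentiviral MUTYH cDNA NNN codon-scan libraries were grown with 10 pg/ml doxycycline and co-transfected with mCherry and a GFP reporter of 8OG:A repair. Viable mCherry+ cells were sorted at 72 h into GFP+ (repair) and GFP− bins, with three replicates per tile, and tile amplicons were sequenced. Rosace fitness scores for each tile were turned into a normalized repair function score anchored on the synonymous and nonsense distributions. Synonymous medians were set to 0 and nonsense medians to -1, and variants below 300 counts per million at the start were dropped.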

8OG:A repair function score, by site and new letter:
Q358: E -0.0404 | V 0.112 | H -0.152 | W -0.308 | D -0.342 | T 0.145 | K 0.0561 | F -0.316 | S -0.152 | N -0.131 | R 0.137 | P 0.069 | L 0.00809 | M -0.074 | C 0.0229 | A -0.219 | Y -0.283 | I -0.163 | G -0.334
L360: N -1.27 | Y -0.447 | R -1.17 | G -0.95 | S -1.32 | M -0.352 | V -0.666 | I -0.403 | A -0.845 | F -0.195 | E -1.15 | C -0.171 | P -1.26 | Q -0.916 | H -1.17 | K -1.23 | T -1.26 | D -1.19 | W -1.54
L370: V -0.484 | F -0.461 | I -0.377 | M -0.659 | P -0.657 | Y -0.258 | C -0.0696 | H -0.297 | E -1.06 | Q -0.398 | R -0.775 | W -0.364 | A -0.326 | K -0.936 | G -0.609 | T -0.332 | D -1 | S -0.406 | N -0.379
L373: F 0.16 | C -0.611 | Q -0.26 | A -0.596 | R -0.666 | P -1.03 | E -0.788 | H -0.452 | M -0.286 | K -0.314 | I -0.315 | G -0.502 | D -1.15 | N -0.777
S367: A -0.145 | P -0.0154 | L -0.139 | Q -0.113 | D -0.0756 | K 0.111 | V 0.0128 | T 0.119 | E 0.154 | H -0.207 | R -0.201 | I -0.335 | G -0.159 | N 0.179 | Y -0.204 | W 0.00054 | F -0.13 | C -0.0437 | M 0.226
L361: C -0.101 | E -1.08 | V -0.0292 | Y -0.508 | H -1.22 | K -0.984 | W -0.755 | Q -0.666 | P -1.01 | N -0.575 | T -0.222 | F -0.49 | I -0.107 | A -0.284 | D -1.06 | M 0.0584 | R -1.12 | G -0.729 | S -0.625
R364: P -0.519 | Q -0.529 | Y -0.593 | I -0.878 | H -0.405 | C -0.262 | D -0.614 | W -1.11 | T -0.411 | A -0.285 | S -0.2 | F -0.639 | G -0.353 | M -0.577 | E -0.504 | V -0.616 | N -0.633 | L -0.747 | K -0.245
A371: M -0.439 | P -0.216 | Q -0.374 | C -0.182 | N -0.476 | R -0.219 | Y -0.46 | T -0.307 | L -0.5 | F -0.605 | W -0.408 | S -0.172 | I -0.776 | D -0.824 | V -0.554 | G 0.0402 | E -0.577 | H -0.324 | K -0.182
N366: P -0.104 | Y 0.00766 | V -0.0917 | Q 0.152 | I -0.169 | C -0.137 | K -0.0179 | A 0.0425 | H 0.288 | D -0.00541 | T -0.00609 | W -0.042 | S 0.0203 | E 0.176 | R -0.0785 | M -0.0331 | G -0.066 | F -0.0908 | L -0.0714
L369: A 0.0443 | F 0.0478 | Y 0.153 | M 0.201 | P 0.0626 | I -0.0978 | N 0.0162 | K -0.206 | H -0.345 | W 0.187 | R 0.0308 | Q 0.0329 | C -0.0782 | T 0.0329 | S -0.169 | V -0.297 | D -0.723 | G -0.359 | E -0.807
V362: E -0.932 | R -0.236 | M -0.403 | L -0.0488 | I -0.125 | Q -0.414 | F -0.662 | W -0.624 | C -0.232 | G -0.901 | K -0.0434 | N -0.669 | S -0.406 | Y -0.434 | H -0.608 | T -0.028 | D -0.671 | P -0.881 | A -0.284
A357: E -0.0948 | P 0.04 | C 0.0134 | S 0.0171 | T -0.0252 | D -0.193 | K -0.152 | H -0.147 | Q 0.125 | G -0.0641 | V -0.0294 | W -0.104 | L -0.0718 | F -0.0934 | M -0.0956 | R -0.0515 | N 0.104 | Y -0.118 | I -0.0394
Q363: I -0.184 | E -0.341 | D -0.431 | G -0.38 | L -0.242 | T -0.255 | K -0.227 | P -0.208 | V -0.293 | H 0.0355 | M -0.284 | R 0.0264 | F -0.479 | S -0.169 | W -0.451 | N -0.441 | C -0.306 | Y -0.408 | A -0.167
G356: F -0.253 | L -0.2 | V -0.13 | M -0.207 | H -0.148 | P -0.0644 | Q 0.00571 | Y -0.0505 | K -0.0901 | R -0.153 | T -0.197 | E -0.141 | N -0.277 | I -0.348 | W -0.0772 | S -0.118
I359: P -1.08 | F 0.0413 | R -0.51 | S -0.465 | Y -0.266 | N -0.425 | E -0.818 | V -0.0354 | K -0.27 | Q -0.322 | H -0.143 | C -0.249 | D -0.946 | M -0.00943 | L 0.0476 | T 0.0861 | G -0.91 | A -0.485 | W 0.0132
G372: Q -0.291 | S -0.15 | H -0.297 | D -0.324 | L -0.351 | P -0.669 | M -0.639 | T -0.157 | W -0.135 | Y -0.393 | R -0.304 | C -0.263 | V -0.75 | A -0.461 | E -0.387 | N -0.294 | F -0.294 | K -0.479 | I -0.775
P365: S -0.116 | C 0.0287 | N 0.119 | W -0.0852 | Q -0.147 | T -0.334 | M -0.184 | E 0.196 | R -0.0845 | Y -0.212 | I 0.146 | H -0.038 | F -0.154 | V 0.0242 | L -0.0397 | K 0.177 | A -0.0399 | G -0.137 | D 0.00966
G368: Q -0.304 | W -0.913 | L -0.532 | K -0.348 | V -0.27 | S -0.236 | T -0.332 | P -0.423 | D -0.434 | I -0.7 | A -0.292 | E -0.692 | Y -0.663 | N -0.146 | F -0.769 | C -0.369 | M -0.799 | R -0.193 | H -0.275
